Source: US20110059095A1 (Regeneron, published 2011)
Where no end group is shown, it is not given here. The star is where a group is joined. Biotin = O=C1N[C@H]2[C@H](CS[C@H]2CCCCC(=O)*)N1

T1: Peptide A (human PAR-2), N-terminal biotinylated (Human, N-terminal biotin via G4S linker)
T1 construct: also called Peptide A N-Term
T1 peptide: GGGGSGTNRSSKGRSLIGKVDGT

T2: Peptide A (human PAR-2), unbiotinylated (Human)
T2 construct: also called Peptide A No Biotin
T2 peptide: GTNRSSKGRSLIGKVDGT

T3: Peptide B (human PAR-2), C-terminal biotinylated (Human, not fully specified)
T3 construct: also called Peptide B C-Term
T3 peptide: SLIGKVDGTSHVTGGGGGS-biotin

T4: Peptide B (human PAR-2), N-terminal biotinylated (Human)
T4 construct: also called Peptide B N-Term
T4 peptide: Biotin-GGGGSSLIGKVDGTSHVTG


Key:
[1] = molecular target: T1, Peptide A (human PAR-2), N-terminal …; assay: peptide ELISA titration
Experimental: (§1) Anti-PAR-2 antibodies were tested for their ability to bind to the PAR-2 peptides. Various PAR-2 Peptides (Table 3) were coated onto 96-well plates at a concentration of 2 μg/ml and incubated overnight followed by blocking in a suitable blocking agent for one hour. […] Purified anti-PAR-2 antibodies were added to the plate coated with PAR-2 peptides to a final concentration ranging from 0.2 to 2.0 μg/ml and incubated for one hour at room temperature. Detection of bound antibodies was determined with Horse-Radish Peroxidase (HRP) conjugated anti-mouse or human IgG (Jackson Immuno Research Lab, West Grove, Pa.) and developed by standard colorimetric response using tetramethylbenzidine (TMB) substrate. Absorbance was read at OD₄₅₀ for 0.1 second.
(§2) In another experiment, selected anti-PAR-2 antibodies cloned onto human IgG4 were tested for binding to unbiotinylated and biotinylated forms of PAR-2 peptides (Peptides A, E, F and G; as described above). […] Absorbance values at 450 nm were analyzed using a sigmoidal dose-response model in GraphPad Prism (GraphPad Software, Inc., La Jolla, Calif.) and EC₅₀ values were reported (Table 9). EC₅₀ values are defined as the antibody concentration required to achieve 50% maximal binding to PAR-2 peptide.

[2] = molecular target: T5, Peptide A (human PAR-2), C-terminal biotinylated (Human, C-terminal biotin via G4S linker); assay: peptide ELISA titration
T5 construct: also called Peptide A C-Term
Experimental: as §1, §2

[3] = molecular target: T6, Peptide F (monkey PAR-2), N-terminal biotinylated (Monkey (Macaca mulatta), N-terminal biotin via G4S linker); assay: peptide ELISA titration
T6 construct: also called Peptide F N-Term
Experimental: as §1, §2

[4] = molecular target: T2, Peptide A (human PAR-2), unbiotinylated; assay: peptide ELISA titration
Experimental: as §1, §2

full length human PAR-2 [5] = molecular target: T7, full length human PAR-2 (human, UniProt P55085 26-397); assay: cell-based or functional assay
[6] = molecular target: T6, Peptide F (monkey PAR-2), N-terminal …; assay: SPR, antibody captured
Experimental: (§3) Equilibrium dissociation constants (KD values) for antigen binding to selected purified PAR-2 antibodies were determined by surface kinetics using a real-time surface plasmon resonance biosensor assay. Antibody was captured on either a rabbit anti-mouse IgG polyclonal antibody (GE Healthcare, Piscataway, N.J.) surface or a goat anti-human IgG polyclonal antibody (Jackson Immuno Research Lab, West Grove, Pa.) surface created through direct amine chemical coupling to a BIACORE™ CM5 sensor chip to form a captured antibody surface. […] Antigen-antibody binding and dissociation were monitored in real time at room temperature. Kinetic analysis was performed to calculate KD and half-life of antigen/antibody complex dissociation (Table 10). For those antibodies where no T_{1/2} value is shown, steady state analysis was used to calculate the KD value. NB: no binding observed under current experimental conditions. ND: not determined.

full length human PAR-2 [7] = molecular target: T7, full length human PAR-2; assay: MSD cell binding
Experimental: HEK293 cells were transfected with an NF-κB-luciferase-IRES-eGFP reporter plasmid. […] A clonal cell line, named D9, having low background levels of luciferase activity and high levels of eGFP when induced with IL-1β was made by a series of successive sorts of cell populations using flow cytometry. The 293/D9 cell line was then separately transfected with human PAR-2 or mouse PAR-2 to create the stable cell lines 293/D9/h PAR-2rec and 293/D9/m PAR-2rec, respectively.
Cells were plated on MSD high-bind 96 well plates at a density of 4×10⁴ cells/well in PBS and incubated for one hour at room temperature. Cells were then blocked in PBS with 2% BSA and incubated at room temperature for one hour. Anti-PAR-2 antibodies (ranging from 100 nM to 0.098 nM) were serially diluted two-fold in PBS with 0.5% BSA and incubated with the cells for one hour at room temperature followed by washing in PBS with 0.5% BSA. Sulfo-tagged anti-human IgG antibody (MSD) at a concentration of 0.1 μg/ml was then added to the cell/antibody mixture and incubated at room temperature for an additional hour. After another wash, a 1× non-surfactant containing read buffer was added and electro-chemiluminescent signal was read on the MSD Sector Imager. Signal of antibody binding to 293/D9 cells was subtracted from signal to 293/D9/hPAR-2rec or 293/D9/mPAR-2rec cells. Subtracted data were analyzed using a sigmoidal dose-response model in GraphPad Prism and EC₅₀ and Bₘₐₓ values were reported (Table 18). EC₅₀ values are defined as the antibody concentration required to achieve 50% maximal binding (Bₘₐₓ) to cells.

[8] = molecular target: T3, Peptide B (human PAR-2), C-terminal …; assay: SPR, peptide immobilized
Method in brief: (§4)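 Neutravidin was amine-coupled to a C1 or CM5 chip, and N- or C-terminal biotinylated peptide was captured at low density (<1RU). Purified antibody at 5–100 μg/ml was injected at 50 μl/min for 300 s, with binding and dissociation monitored in real time at 25° C. KD was derived from surface kinetics.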

[9] = molecular target: T5, Peptide A (human PAR-2), C-terminal …; assay: SPR, peptide immobilized
Method in brief: as §4

[10] = molecular target: T4, Peptide B (human PAR-2), N-terminal …; assay: SPR, peptide immobilized
[11] = molecular target: T1, Peptide A (human PAR-2), N-terminal …; assay: SPR, peptide immobilized
[12] = molecular target: T6, Peptide F (monkey PAR-2), N-terminal …; assay: SPR, peptide immobilized
[13] = molecular target: T2, Peptide A (human PAR-2), unbiotinylated; assay: SPR, antibody captured
Experimental: as §3

T6 sequence (peptide, as listed by the source): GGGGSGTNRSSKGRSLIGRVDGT
T7 sequence (P55085 26-397 G138A limits assumed): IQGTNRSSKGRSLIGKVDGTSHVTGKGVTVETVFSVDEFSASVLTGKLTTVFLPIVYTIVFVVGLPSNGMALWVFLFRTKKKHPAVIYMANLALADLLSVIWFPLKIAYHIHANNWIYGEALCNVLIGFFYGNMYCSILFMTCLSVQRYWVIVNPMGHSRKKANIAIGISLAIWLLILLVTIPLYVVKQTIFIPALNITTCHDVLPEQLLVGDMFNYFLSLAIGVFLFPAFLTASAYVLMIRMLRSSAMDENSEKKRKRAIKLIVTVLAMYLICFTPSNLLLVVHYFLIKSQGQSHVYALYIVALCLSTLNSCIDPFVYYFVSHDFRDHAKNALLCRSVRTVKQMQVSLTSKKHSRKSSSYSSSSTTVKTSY

Binder	EC50 [1]	EC50 [2]	EC50 [3]	EC50 [4]	IC50, NF-kB-luciferase, 20 nM Trypsin (full length human PAR-2 [5])	Kd [6]	T1/2 [6]	Bmax (full length human PAR-2 [7])	EC50 (full length human PAR-2 [7])	Kd [8]	T1/2 [8]	Kd [9]	T1/2 [9]	Kd [10]	T1/2 [10]	Kd [11]	T1/2 [11]	Kd [12]	T1/2 [12]	Kd [13]	further results
H4H588N (antibody, human IgG4, V domains shown, also called H2M588N variable regions) VH: EVQLLESGGGLVQPGGSLRLSCAASGFTFSSYAMTWVRQAPGKGLYWVSAISGGRGSAYYADSVKGRFTISRDNSKNTLYLQMNSLRAEDTAVYYCAKEGDSGYDLAYWGRGTLVTVSS VL: DIQMTQSPSSLSASVGDRVTITCRARQGISNNLAWLQQKPGKAPKSLIYAASSLQSGIPSKFSGSGSGTYFTLTISSLQPEDFATYYCQQYKSSPLTFGGGTKVEIK	0.019 nM	0.016 nM	0.012 nM	0.01 nM	16.9 nM	10.8 nM	20 min	27500 MSD Unit	5.95 nM	1.03 nM	70 min	0.517 nM	141 min	0.0272 nM	> 1160 min	1.05 nM	189 min	1.81 nM	94 min	4.95 nM	T1/2 [13]: 25.1 min
H4H584P (antibody, human IgG4, V domains shown, also called H1H584P variable regions) VH: QVQLVESGGGVVQPGRSLRLSCVASGFTFSRYGMHWVRQAPGKGLEWVVVISYDGINKYYADSVKGRFTISRDNSKNTVYLQMNSLRAEDTAVYYCAKGDFWSGYFDYWGQGTLVTVSS VL: DIVMTQTPLSSPVTLGQPASISCRSSQSLVHSDGNTYLSWLHQRPGQPPRLLIYKISNRFSGVPDRFSGSGAGTDFTLQISRVEAEDVGIYYCMQATQFPTFGGGTKVEIK	0.019 nM	0.015 nM	0.012 nM	0.012 nM	5.6 nM	93.3 nM	0.23 min	26000 MSD Unit	1.45 nM	1.66 nM	15 min	0.688 nM	55 min	3.2 nM	30 min	0.525 nM	43 min	0.565 nM	40 min	22 nM	T1/2 [13]: 0.73 min
H4H585P (antibody, human IgG4, V domains shown, also called H1H585P variable regions) VH: QVQLVESGGGVVQPGRSLRLSCVASGFTFSRYGMHWVRQAPGKGLEWLIVISYDGINKYYADSVKGRFTISRDNSKNTVYLQMNSLRAEDTAVYYCAKGDFWSGYFDYWGQGTLVTVSS VL: DIVMTQTPLSSPVTLGQPASISCRSSQSLVHSDGNTYLSWLHQRPGQPPRLLIYKISNRFSGVPDRFSGSGAGTDFTLQISRVEAEDVGIYYCMQGTQFPTFGGGTKVEIK	0.026 nM	0.021 nM	0.017 nM	0.017 nM	8.9 nM	46.2 nM	2 min	22500 MSD Unit	1.95 nM	0.376 nM	123 min	0.151 nM	493 min	5.41 nM	63 min	1.69 nM	48 min	0.899 nM	66 min	8.78 nM	T1/2 [13]: 3.7 min
H4H581P (antibody, human IgG4, V domains shown, also called mAb H4H581P; H1H581P variable regions) VH: QVQLVESGGGVVQPGRSLRLSCVASGFTFSRYGIHWVRQAPGKGLEWVIVISYDGINKYYADSVKGRFTISRDNSKNTVYLQMNSLRAEDTAVYYCAKGDFWSGYFDYWGQGTLVTVSS VL: DIVMTQTPLSSPVTLGQPASISCRSSQSLVHSDGNTYLSWLHQRPGQPPRLLIYKISNRFSGVPDRFSGSGAGTDFTLQISRVEAEDVGIYYCMQATQFPTFGGGTKVEIK	0.02 nM	0.028 nM	0.02 nM	0.012 nM	1.1 nM	36.6 nM	0.53 min	28200 MSD Unit	0.652 nM	0.346 nM	49 min	0.237 nM	134 min	2.72 nM	38 min	0.498 nM	41 min	0.272 nM	78 min	9.44 nM	T1/2 [13]: 1.4 min
H4H579P (antibody, human IgG4, V domains shown, also called H1H579P variable regions) VH: QVQLVESGGGVVQPGRSLRLSCVASGFTFSRYGMHWVRQAPGKGLEWLIVISYDGINKYYADSVKGRFTISRDNSKNTVYLQMNSLRAEDTGVYYCAKGDFWSGYFDYWGQGTLVTVSS VL: DIVMTQTPLSSPVTLGQPASISCRSSQSLVHSDGNTYLSWLHQRPGQPPRLLIYKISNRFSGVPDRFSGSGAGTDFTLQISRVEAEDVGIYYCMQGTQFPTFGGGTKVEIK	0.077 nM	0.076 nM	0.061 nM	0.038 nM	4.1 nM	49.4 nM	2 min	25000 MSD Unit	1.86 nM	0.453 nM	96 min	0.143 nM	479 min	5.44 nM	55 min	1.61 nM	46 min	0.796 nM	70 min	15 nM	T1/2 [13]: 4.1 min
